Measured values from publication PMC6539346, “Molecular and Structural Basis of the Proteasome α Subunit Assembly Mechanism Mediated by the Proteasome-Assembling Chaperone PAC3-PAC4 Heterodimer” (International Journal of Molecular Sciences, 2019).

Biological target: the molecule itself
Test: crystal structure; non-tagged PAC3 homodimer, 8.0 mg/mL in 20 mM Tris-HCl pH 7.5, 150 mM NaCl; crystals from 30% PEG2000 monomethyl ether, 0.1 M potassium thiocyanate, 20 °C; space group P3(1)21, 0.96 Å

B1: human PAC3 homodimer, non-tagged (natural protein)
chain: MEDTPLVISKQKTEVVCGVPTQVVCTAFSSHILVVVTQFGKMGTLVSLEPSSVASDVSKPVLTTKVLLGQDEPLIHVFAKNLVAFVSQEAGNRAVLLAVAVKDKSMEGLKALREVIRVCQVW
notes: human proteasome-assembling chaperone PAC3; source: E. coli BL21-CodonPlus (DE3)-RIL, purified
  binding result: binds
